Measurements taken from the RNAGym collection of RNA variant scans (doi:10.1093/molbev/msab373).

B1: Azoarcus group I ribozyme (parent)
chain: GUGCCUUGCGCCGGGAAACCACGCAAGGGAUGGUGUCAAAUUCGGCGAAACCUAAGCGCCCGCCCGGGCGUAUGGCAACGCCGAGCCAAGCUUCGGCGCCUGCGCCGAUGAAGGUGUAGAGACUAGACGGCACCCACCUAAGGCAAACGCUAUGGUGAAGGCAUAGUCCAGGGAGUGGCGAAAGUCACACAAACCGG

Variants of: B1
Assay: reverse-splicing fitness (ratio to wild type); higher = more active; in vitro selection; Mg2+ level not given
Summary of the method: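 An in vitro group I ribozyme library with randomized positions was T7-transcribed and gel-purified. In triplicate, 10 pmol RNA in EPPS pH 7.5 was reacted with 50 pmoles of a 30-nt RNA substrate for 1 h at 37 °C across several added MgCl2 levels (1–48 mM), then stopped with EDTA. Products were reverse transcribed from a substrate-complementary primer, PCR-amplified and sequenced (HiSeq 4000). Fitness is a variant's read proportion after selection over that before, normalised to wild type.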

| Variant | reverse-splicing fitness |
| --- | --- |
| C82G A111G A120G A145G C150U U176C | 0.0189 |
| C82G A111G A120G A145U C150G C169U U176A | 0.0117 |
| C82G A111G A120G A145U C150G C169U U176C | 0.0149 |
| C82G A111G A120G A145U C150G C169U U176G | 0.00523 |
| C82G A111G A120C C169G U176C | 0.0193 |
| C82G A111G A120C C169G U176G | 0.00531 |
| C82G A111G A120C C169G U176A | 0.0164 |
| C82G A111G A120G A145U | 0.0198 |
| C82G A111G A120G A145G | 0.0179 |
| C82G A111G A120G A145C | 0.0157 |
| C82G A111G A120G C150G C169A U176C | 0.0135 |
| C82G A111G A120G C150G C169A U176A | 0.0118 |
| C82G A111G A120G C150G C169A U176G | 0.00685 |
| C82G A111G A120G A145G C150A C169G | 0.0102 |
| C82G A111G A120G A145G C150A C169A | 0.0113 |
| C82G A111G A120G A145G C150A C169U | 0.0102 |
| C82G A111G A120C C150G C169A U176C | 0.016 |
| C82G A111G A120C C150G C169A U176A | 0.0102 |
| C82G A111G A120C C150G C169A U176G | 0.00813 |
| C82G A111G A120G A145U C150U C169G U176C | 0.0179 |
| C82G A111G A120G A145U C150U C169G U176G | 0.00518 |

| Variant | reverse-splicing fitness |
| --- | --- |
| C82G A111G A120G A145U C150U C169G U176A | 0.0161 |
| C82G A111G A120G A145U C169U U176A | 0.0191 |
| C82G A111G A120G A145U C169U U176G | 0.00384 |
| C82G A111G A120G A145U C169U U176C | 0.0161 |
| C82G A111G A120G A145G C150G C169G U176A | 0.0111 |
| C82G A111G A120G A145G C150G C169G U176C | 0.0118 |
| C82G A111G A120G A145G C150G C169G U176G | 0.0063 |
| C82G A111G A120G C150U C169U U176C | 0.0174 |
| C82G A111G A120G C150U C169U U176G | 0.00864 |
| C82G A111G A120G C150U C169U U176A | 0.0189 |
| C82G A111G A120G A145U C150U C169U U176G | 0.00452 |
| C82G A111G A120G A145U C150U C169U U176C | 0.0182 |
| C82G A111G A120G A145U C150U C169U U176A | 0.0186 |
| C82G A111G A120G A145G C150U C169G | 0.0181 |
| C82G A111G A120G A145G C150U C169A | 0.0144 |
| C82G A111G A120G A145G C150U C169U | 0.0141 |
| C82G A111G A120G A145G C150A U176G | 0.0096 |
| C82G A111G A120G A145G C150A U176C | 0.0232 |
| C82G A111G A120G A145G C150A U176A | 0.0107 |
| C82G A111G A120G A145U C150U C169U | 0.0114 |
| C82G A111G A120G A145U C150U C169G | 0.0148 |

| Variant | reverse-splicing fitness |
| --- | --- |
| C82G A111G A120G A145U C150U C169A | 0.0123 |
| C82G A111G A120G A145G C150G C169G | 0.00845 |
| C82G A111G A120G A145G C150G C169U | 0.00986 |
| C82G A111G A120G A145G C150G C169A | 0.00957 |
| C82G A111G A120G A145C C150A C169G U176A | 0.0249 |
| C82G A111G A120G A145C C150A C169G U176G | 0.00603 |
| C82G A111G A120G A145C C150A C169G U176C | 0.0187 |
| C82G A111G A120G C150G C169U U176A | 0.0119 |
| C82G A111G A120G C150G C169U U176G | 0.00715 |
| C82G A111G A120G C150G C169U U176C | 0.0158 |
| C82G A111G A120C A145U C169U U176A | 0.0129 |
| C82G A111G A120C A145U C169U U176C | 0.0124 |
| C82G A111G A120C A145U C169U U176G | 0.00484 |
| C82G A111G A120G A145U C150U C169A U176G | 0.00619 |
| C82G A111G A120G A145U C150U C169A U176C | 0.0159 |
| C82G A111G A120G A145U C150U C169A U176A | 0.0154 |
| C82G A111G A120G A145G C150G C169A U176G | 0.00881 |
| C82G A111G A120G A145G C150G C169A U176C | 0.0138 |
| C82G A111G A120G A145G C150G C169A U176A | 0.0146 |
| C82G A111G A120G C150U C169G U176G | 0.00549 |
| C82G A111G A120G C150U C169G U176C | 0.0206 |

| Variant | reverse-splicing fitness |
| --- | --- |
| C82G A111G A120G C150U C169G U176A | 0.0182 |
| C82G A111G A120C C169U U176G | 0.00596 |
| C82G A111G A120C C169U U176C | 0.0134 |
| C82G A111G A120C C169U U176A | 0.0138 |
| C82G A111G A120G A145C C150A C169U U176A | 0.021 |
| C82G A111G A120G A145C C150A C169U U176C | 0.0128 |
| C82G A111G A120G A145C C150A C169U U176G | 0.00551 |
| C82G A111G A120G A145G C150G | 0.00815 |
| C82G A111G A120G A145G C150U | 0.0167 |
| C82G A111G A120G A145G C150A | 0.0101 |
| C82G A111G A120G A145U C150U U176C | 0.0212 |
| C82G A111G A120G A145U C150U U176A | 0.0125 |
| C82G A111G A120G A145U C150U U176G | 0.00626 |
| C82G A111G A120G A145G C150G U176A | 0.00718 |
| C82G A111G A120G A145G C150G U176C | 0.0114 |
| C82G A111G A120G A145G C150G U176G | 0.00608 |
| C82G A111G A120C A145U C169G U176A | 0.0157 |
| C82G A111G A120C A145U C169G U176C | 0.0163 |
| C82G A111G A120C A145U C169G U176G | 0.00477 |
| C82G A111G A120C A145U C150U U176A | 0.0202 |
